Data set [1] has as its target T1, GST-PTEN (amino-terminal phosphatase domain) (Homo sapiens, UniProt P60484 1-200). Put plainly: filter binding, Scatchard; data not shown; Filter binding: 50 mM Tris (pH not given), 1 h, 40 µl, protein 0.5 mg/ml (Fig. 2E: GST-PTEN 25 µM), PBS washes; co-precipitation 1 h at room temperature, 1 µM aptamer; pull-down from homogenate with 250 nM aptamer, salmon sperm DNA, RIPA (1:2)/PBS washes; blots in PBS-BSA 2%. The note with it: protein: recombinant; tags: GST (N-terminal, pGEX2T); label: 5'-biotin or 32P (assay dependent); hairpin; 13 bp stem from the constant regions.

Data set [2] has as its target T2, PTEN peptide 33-47 amide (human and mouse (same sequence), UniProt P60484).
T2 chain: IAMGFPAERLEGVYR-NH2
In words: co-precipitation on antibody-Sepharose, real-time PCR; peptide bound to anti-PTEN antiserum; 1.8e11 molecules bound; Filter binding: 50 mM Tris (pH not given), 1 h, 40 µl, protein 0.5 mg/ml (Fig. 2E: GST-PTEN 25 µM), PBS washes; co-precipitation 1 h at room temperature, 1 µM aptamer; pull-down from homogenate with 250 nM aptamer, salmon sperm DNA, RIPA (1:2)/PBS washes; blots in PBS-BSA 2%. The note with it: tags: C-terminal amide; label: 5'-biotin or 32P (assay dependent); hairpin; 13 bp stem from the constant regions. For orientation: Quantitative PCR measures a nucleic acid by following its amplification.

The target in data set [3] is T2, PTEN peptide 33-47 amide. In words: filter binding; Filter binding: 50 mM Tris (pH not given), 1 h, 40 µl, protein 0.5 mg/ml (Fig. 2E: GST-PTEN 25 µM), PBS washes; co-precipitation 1 h at room temperature, 1 µM aptamer; pull-down from homogenate with 250 nM aptamer, salmon sperm DNA, RIPA (1:2)/PBS washes; blots in PBS-BSA 2%. The note with it: tags: C-terminal amide; label: 5'-biotin or 32P (assay dependent); hairpin; 13 bp stem from the constant regions.

For data set [4], the target named is T1, GST-PTEN (amino-terminal phosphatase …). In words: filter binding, Scatchard; called affinity constant; Filter binding: 50 mM Tris (pH not given), 1 h, 40 µl, protein 0.5 mg/ml (Fig. 2E: GST-PTEN 25 µM), PBS washes; co-precipitation 1 h at room temperature, 1 µM aptamer; pull-down from homogenate with 250 nM aptamer, salmon sperm DNA, RIPA (1:2)/PBS washes; blots in PBS-BSA 2%. The note with it: protein: recombinant; tags: GST (N-terminal, pGEX2T); label: 5'-biotin or 32P (assay dependent); hairpin; 13 bp stem from the constant regions.

Where no end group is shown, it is not given here.

T1 sequence (P60484 1-200): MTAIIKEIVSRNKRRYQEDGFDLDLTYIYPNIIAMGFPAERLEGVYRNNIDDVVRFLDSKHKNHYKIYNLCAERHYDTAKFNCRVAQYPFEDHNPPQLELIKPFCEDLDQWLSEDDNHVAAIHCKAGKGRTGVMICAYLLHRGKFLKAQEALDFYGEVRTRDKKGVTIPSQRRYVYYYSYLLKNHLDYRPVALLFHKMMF

B1: PTENz14 (structured_DNA)
DNA: CGGAATTCCGAGCGTGGGCGTGAGCCCTAAACACAAGTCCGCAGGGGTGTGGTAATATTCGCAGTTGTGTGTACGCCCACGCTCGAG
Broadly, the Kd is the equilibrium constant for the complex coming apart. For B1, in data set [1], the Kd was 54 nM. Moreover, in the data set with PTEN peptide 33-47 amide [2], the binding signal was around 20 fold over background.

B2: PTENz7 (structured_DNA)
DNA: CGGAATTCCGAGCGTGGGCGTGGTCATACCGCGCCTATCGAACTCGCCACTCGCGTGCAGCTCTGTGTAGGTACGCCCACGCTCGAG
As for B2, in the data set with PTEN peptide 33-47 amide [3], the binding result is on record as “binds”. Moreover, in data set [4], the dissociation constant Kd stood at 75 nM.

Source of the values: article PMC3084716, “Different Conformations of Phosphatase and Tensin Homolog, Deleted on Chromosome 10 (PTEN) Protein within the Nucleus and Cytoplasm of Neurons”.
